Assay results from patent US20110243928A1 (published 2011).

Experiments:
[1] = biological target: mammalian-expressed (CHO cell) human IL-13 (human, UniProt P35225 35-146, limits assumed); test: cell-based or functional assay
[2] = biological target: E. coli-expressed recombinant Q130 human IL-13 (human, UniProt P35225 35-146, limits assumed); test: cell-based or functional assay
[3] = biological target: T1, E. coli-expressed recombinant cynomolgus IL-13 (cynomolgus, UniProt Q5I6E4 21-132 (Macaca thibetana entry)); test: cell-based or functional assay
T1 chain: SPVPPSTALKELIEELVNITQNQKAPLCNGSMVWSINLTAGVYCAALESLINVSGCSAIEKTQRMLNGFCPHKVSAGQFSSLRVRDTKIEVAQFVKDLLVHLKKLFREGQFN

[4] = biological target: T2, E. coli-expressed recombinant human IL-13 (human, UniProt P35225 35-146); test: cell-based or functional assay
[5] = biological target: T3, E. coli-expressed recombinant det-1 tagged human IL-13 (human, UniProt P35225 35-146); test: competition ELISA: inhibition of det-1 tagged human IL-13 binding to human IL-13Rα1-Fc
T3 construct: also called Det-1 tagged human IL-13 (made in-house); not shown: det-1 tag

16 mer peptide 44 = biological target: T4, 16 mer peptide 44 (cynomolgus, N-terminal biotin; C-terminal free acid); test: 16 mer peptide ELISA
T4 construct: also called 44 (Control)
T4 peptide: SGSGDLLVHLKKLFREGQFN
From the text: (§1) Biotinylated 16 mer peptides offset by 4 were synthesised to map the location of the B cell epitope recognised by mAb 6A1 on both human and cynomolgus IL-13. An ELISA method was used to detect binding of immobilised biotinylated peptide to the parental mAb 6A1.

16 mer peptide 30 = biological target: T5, 16 mer peptide 30 (N-terminal biotin; C-terminal amide); test: 16 mer peptide ELISA
T5 peptide: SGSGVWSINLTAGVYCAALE
From the text: as §1

[6] = biological target: T6, E. coli-expressed recombinant human GM-CSF (human, UniProt P04141 18-144); test: sandwich ELISA
[7] = biological target: T1, E. coli-expressed recombinant …; test: BIAcore analysis 1, antibody captured, IL-13 in solution
Experimental: (§2) Completed for both human and cynomolgus IL-13 (E. coli-expressed protein). The quoted KD values are the average from 5 different IL-13 concentration curves (done in triplicate). Note that mass transfer issues were apparent in this analysis and that a modified experimental protocol (to correct for this issue) has been completed in analysis 4 (where no mass transfer issues were present).
(§3) The kinetics analysis was performed on a Biacore 3000 machine, using an antibody capture method. Briefly, for the chimeric 6A1 and humanised antibody constructs Protein A capture was used, whilst for the parental murine 6A1 antibody, capture was by a anti-mouse Fc antibody supplied by Biacore. Briefly, the method is as follows, the capture ligand was immobilised to a CM5 Biosensor chip by primary amine coupling in accordance with Biacore standard protocols and using the reagents supplied in Biacores' primary amine coupling kit. The method involves activation CM5 sensor surface by passing a solution of 50 mM N-hydroxy-succinimide (NHS) and 200 mM N-ethyl-N′-dimethylaminopropyl […] (EDC) over the surface. Then, the capture ligand (dissolved in acetate buffer pH5 or pH4.5) was coupled to the activated sensor surface after which any still activated esters were blocked by an injection of 1M ethanolamine hydrochloride, pH8.5.
(§4) The candidate antibody was then passed over the Protein A or anti-mouse Fc antibody surface, depending on whether it was human or mouse in origin and captured. Once a stable binding signal was seen IL13 was passed over the captured antibody surface at various defined concentrations. The subsequent binding curves were analysed with Biacore analysis software BIAeval v4.1 to determine kinetics. The experiments were carried out using Biacore HBS-EP buffer.

[8] = biological target: T2, E. coli-expressed recombinant human …; test: as above
Experimental: as §2, §3, §4

[9] = biological target: T3, E. coli-expressed recombinant det-1 …; test: competition ELISA: inhibition of det-1 tagged human IL-13 binding to human IL-13Rα2-Fc
[10] = biological target: T7, E. coli-expressed recombinant human IL-4 (human, UniProt P05112 25-153); test: human IL-4 binding sandwich ELISA
T7 sequence (looked up): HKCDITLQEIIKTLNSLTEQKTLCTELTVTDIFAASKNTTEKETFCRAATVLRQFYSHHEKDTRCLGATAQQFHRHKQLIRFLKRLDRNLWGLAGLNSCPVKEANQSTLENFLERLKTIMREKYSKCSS

[11] = biological target: T2, E. coli-expressed recombinant human …; test: BIAcore analysis 2
[12] = biological target: T7, E. coli-expressed recombinant human IL-4; test: binding ELISA
[13] = biological target: T6, E. coli-expressed recombinant human …; test: binding ELISA
[14] = biological target: T1, E. coli-expressed recombinant …; test: BIAcore analysis 4, antibody captured on Protein A, IL-13 in solution
Experimental: (§5) Completed for both human and cynomolgus IL-13 (E. coli-expressed protein). The quoted KD values are the average from 5 different IL-13 concentration curves (done in triplicate).
as §3, §4

[15] = biological target: T2, E. coli-expressed recombinant human …; test: as above
Experimental: as §5, §3, §4

T2 sequence (P35225 other isoform, or with tags, fused parts or gaps): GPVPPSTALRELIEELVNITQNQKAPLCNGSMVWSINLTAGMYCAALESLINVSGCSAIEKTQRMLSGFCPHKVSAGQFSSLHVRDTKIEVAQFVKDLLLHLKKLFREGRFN
T6 sequence (P04141 18-144 limits assumed): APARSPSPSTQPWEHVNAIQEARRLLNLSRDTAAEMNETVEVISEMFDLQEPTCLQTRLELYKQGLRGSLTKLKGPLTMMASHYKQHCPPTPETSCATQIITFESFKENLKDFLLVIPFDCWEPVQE
T3 sequence (P35225 other isoform, or with tags, fused parts or gaps): as the sequence (P35225 other isoform, or with tags, fused parts or gaps) above
Chain of E. coli-expressed recombinant Q130 human IL-13 (P35225 35-146 limits assumed): as the sequence (P35225 other isoform, or with tags, fused parts or gaps) above, with R110Q counted along it
Chain of mammalian-expressed (CHO cell) human IL-13 (P35225 other isoform, or with tags, fused parts or gaps limits assumed): as the sequence (P35225 other isoform, or with tags, fused parts or gaps) above

B1: monoclonal antibody 6A1 (antibody, IgG1, V domains shown)
VH: EIQLQQSVAELVRPGASVRLSCTASGFYIKDTYMHWVIQRPEQGLEWIGTIDPANGNTKYVPKFQGKATITADTSSNTAYLRLSSLTSEDTAIYYCARSIYDDYHYDDYYAMDYWGQGTSVTVSS
VL: DVLMTQTPLSLPVSLGDQASISCRSSQNIVHINGNTYLEWYLQKPGQSPKLLIYKISDRFSGVPDRFSGSGSGTDFTLKISRVEAEDLGVYYCFQGSHVPWTFGGGTKLEIK
notes: also called 6A1 parental mAb; parental mouse mAb 6A1
ND50, TF-1 cell proliferation bioassay [1]: 0.037 µg/mL
ND50, TF-1 cell proliferation bioassay [2]: 0.11 µg/mL
ND50, TF-1 cell proliferation bioassay [3]: 0.04 µg/mL
ND50, TF-1 cell proliferation bioassay [4]: 0.0783 µg/mL
IC50 [5]: 0.165 µg/mL
absorbance at 490 nm (16 mer peptide 44): 2.23 A490
absorbance at 490 nm (16 mer peptide 30): 0.062 A490
binding result [6]: no binding
Kd [7]: 0.061 nM
koff [7]: 5.6e-05 s⁻¹
kon [7]: 914000 M⁻¹ s⁻¹
Kd [8]: 0.035 nM
koff [8]: 6.78e-05 s⁻¹
kon [8]: 1.96e+06 M⁻¹ s⁻¹
IC50 [9]: 0.056 µg/mL
binding result [10]: no binding

B2: L1+A1 (antibody, human IgG1, kappa, V domains shown)
VH: QVQLVQSGAEVKKPGSSVKVSCKASGFYIKDTYMHWVRQAPGQGLEWMGTIDPANGNTKYVPKFQGRVTITADESTSTAYMELSSLRSEDTAVYYCARSIYDDYHYDDYYAMDYWGQGTLVTVSS
VL: DIVMTQSPLSLPVTPGEPASISCRSSQNIVHINGNTYLEWYLQKPGQSPRLLIYKISDRFSGVPDRFSGSGSGTDFTLKISRVEADDVGIYYCFQGSHVPWTFGQGTKLEIKR
notes: Humanised 6A1, VH construct A1 and VL construct L1, human gamma1 wild type / kappa constant regions; also called A1L1; humanised anti-IL-13 mAb L1+A1
Kd [11]: 0.149 nM
koff [11]: 6.95e-05 s⁻¹
kon [11]: 466000 M⁻¹ s⁻¹
binding result [12]: no binding (tested: 30 µg/ml)
binding result [13]: no binding (tested: 30 µg/ml)
Kd [7]: 0.035 nM
koff [7]: 1.55e-05 s⁻¹
kon [7]: 446000 M⁻¹ s⁻¹
Kd [8]: 0.3 nM
koff [8]: 0.000155 s⁻¹
kon [8]: 507000 M⁻¹ s⁻¹
Kd [14]: 0.08 nM
koff [14]: 5.86e-05 s⁻¹
kon [14]: 730000 M⁻¹ s⁻¹
Kd [15]: 0.17 nM
koff [15]: 0.00014 s⁻¹
kon [15]: 824000 M⁻¹ s⁻¹
